The results in this text go back to patent US20110159013A1.

This test concerns the target ADDL fibril preparation (Aβ1-42 fibrils made in 10 mM hydrochloric acid). Description: solution equilibrium titration; free IgG by ELISA; GraFit.

Take monoclonal antibody WO-2: the Kd (in general, a measure of binding affinity in units of concentration) came to 1.15 nM.
